Results from patent US20210015937A1 (CRESCENDO BIOLOGICS, published 2021).

How the values were obtained:
[1] = molecular target: T1, recombinant human LAG-3-Fc (human, UniProt P18627 23-450); test: competition ELISA; LAG-3-Fc pre-incubated with VH, binding to coated Galectin-3
T1 construct: also called human LAG-3 (R&D Systems cat no. 2319-L3); LAG3 antigen
T1 sequence: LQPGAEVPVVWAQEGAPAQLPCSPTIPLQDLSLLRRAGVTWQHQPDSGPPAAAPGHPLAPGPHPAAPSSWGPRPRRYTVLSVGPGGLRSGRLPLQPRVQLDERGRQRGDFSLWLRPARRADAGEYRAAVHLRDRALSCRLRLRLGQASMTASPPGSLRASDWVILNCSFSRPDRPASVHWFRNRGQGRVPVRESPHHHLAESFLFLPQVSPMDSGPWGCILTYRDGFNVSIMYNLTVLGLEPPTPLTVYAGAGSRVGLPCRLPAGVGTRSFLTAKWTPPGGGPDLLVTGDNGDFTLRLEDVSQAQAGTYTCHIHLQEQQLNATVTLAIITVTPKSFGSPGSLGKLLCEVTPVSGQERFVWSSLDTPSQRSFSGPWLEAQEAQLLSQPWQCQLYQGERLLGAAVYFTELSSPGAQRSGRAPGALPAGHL
Text: The plate was blocked with 3% Marvel skimmed milk powder in PBS. […] Wash steps were done 3 times with PBS 0.05% Tween. Colour was developed using TMB and 0.5M sulphuric acid solution.

[2] = molecular target: T2, human LAG-3 domains 1-2-Fc (human, UniProt P18627 23-261, limits assumed); test: BLI (Octet); human LAG-3 domains 1-2-Fc captured on protein G biosensors, 1:1 fit
T2 construct: Domains were identified as per Huard et al 1997 PNAS 94:5744-9; also called truncated LAG-3
T2 sequence: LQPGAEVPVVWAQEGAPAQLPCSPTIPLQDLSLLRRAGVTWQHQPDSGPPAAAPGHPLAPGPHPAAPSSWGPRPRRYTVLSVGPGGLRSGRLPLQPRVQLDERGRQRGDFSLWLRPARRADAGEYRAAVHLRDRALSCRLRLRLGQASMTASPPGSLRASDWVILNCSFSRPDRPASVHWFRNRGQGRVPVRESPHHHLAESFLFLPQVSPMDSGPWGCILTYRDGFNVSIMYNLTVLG
Method: Binding kinetics for multi-valent and bispecific VH were also measured in real-time bio-layer interferometer based biosensor Octet (ForteBio). […] All the binding studies were performed in HBS-ET Octet kinetics buffer. Biosensors were washed in Octet kinetics buffer in between different steps. […] The contact time for each of the association steps was 150 seconds and the dissociation step was 400 seconds. […] To compare the constructs, kinetic association (kₐ) and dissociation (kd) rate constants were determined by processing and fitting the data to a 1:1 binding model using ForteBio Analysis software.

[3] = molecular target: T3, human LAG-3 expressed on cells (human, UniProt P18627 23-525); test: flow cytometry (Intellicyte) on anti-CD3/anti-CD28 stimulated human CD4+ T cells; His-tagged VH detected with anti-HIS biotin and streptavidin AlexaFluor488
T3 construct: also called CHO cells expressing human LAG-3; CHO human LAG-3 cells
T3 sequence: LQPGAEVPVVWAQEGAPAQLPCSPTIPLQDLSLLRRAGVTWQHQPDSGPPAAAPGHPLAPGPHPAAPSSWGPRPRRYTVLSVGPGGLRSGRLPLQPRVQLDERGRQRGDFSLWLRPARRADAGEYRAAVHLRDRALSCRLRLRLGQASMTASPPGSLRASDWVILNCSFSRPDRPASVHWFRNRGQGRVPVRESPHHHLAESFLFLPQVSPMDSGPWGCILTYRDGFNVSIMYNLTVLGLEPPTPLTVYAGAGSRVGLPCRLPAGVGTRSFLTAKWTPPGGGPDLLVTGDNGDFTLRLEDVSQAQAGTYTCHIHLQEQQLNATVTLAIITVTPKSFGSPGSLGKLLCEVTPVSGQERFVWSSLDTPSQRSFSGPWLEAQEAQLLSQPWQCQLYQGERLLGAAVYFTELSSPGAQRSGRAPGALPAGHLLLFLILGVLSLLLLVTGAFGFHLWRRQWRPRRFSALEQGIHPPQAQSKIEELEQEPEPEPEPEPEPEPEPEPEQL
Method: FIG. 2. CD4+ T cells were stimulated with anti-CD3 and anti-CD28. Cells were stained with HIS tagged VH plus anti-HIS tag labelled with biotin and streptavidin AlexaFluor488. Cells were analysed using Intellicyte® cytometer.
Binding onto human activated T cells was measured by cytometry. PBMC or magnetically isolated T cells were isolated from leukocytes cones and cells were incubated in 96 well plates coated with anti-CD3 (OKT3) at 5 μg/ml. Anti-CD28 (CD28.2) was added at 1 μg/ml in RPMI media and foetal bovine serum. After 72-96 hours, cells were harvested and stained using standard flow cytometry methods. […] Fluorescently labelled anti-CD4 and anti-CD8 were included in PBMC cultures and a live/dead dye. Stained cells were analysed using the IQue cytometer (Intellicyte). EC50 were calculated from the titration curve of median fluorescence of Humabody, gating on CD4+ or CD8+ cells if using mixed cells.

[4] = molecular target: T3, human LAG-3 expressed on cells; test: cell-based or functional assay

IC50 [1]: 34 nM
Kd [2]: 0.811 nM
koff [2]: 0.000522 s⁻¹
kon [2]: 644000 M⁻¹ s⁻¹
EC50 (read off the curve) [3]: ~0.1 nM
EC50 (M), NFAT-Luciferase Reporter Gene assay (LAG-3:MHCII) [4]: 4.1e-09 M
B1: VH1.1-6GS-VH1.1-His6 (VHH)
chain: EVQLVESGGGVVRPGGSLRLSCSASGFTFDDYGMSWVRQAPGKGLEWVSGIHWNGGNSGYADSVKGRFTISRDNAKNSLYLQMNSLRAEDTALYYCARIPREDCSSASCYTDAIDFWGPGTMVTVSSGGGGSGGGGSGGGGSGGGGSGGGGSGGGGSEVQLVESGGGVVRPGGSLRLSCSASGFTFDDYGMSWVRQAPGKGLEWVSGIHWNGGNSGYADSVKGRFTISRDNAKNSLYLQMNSLRAEDTALYYCARIPREDCSSASCYTDAIDFWGPGTMVTVSSAAAHHHHHH
notes: Tandem fusion of two VH 1.1, bivalent for LAG-3; The entry includes the C-terminal AAA-His6; also called 1.1-6GS-1.1; bivalent 1.1-6GS-1.1
